Measurements reported in the RNAGym collection of RNA variant scans (doi:10.1073/pnas.2313332121).

B1: TPR t1 (parent)
chain: GACCAAUCUGCCCUCAGAGCUCGAGAACAUCUUCGGAUGCAGAGGAGGCAGGCUUCGGUGGCGCGAUAGCGCCAACGUCCUCAACCUCCAAUGCAUCCCACCACAUGAUGAUGCCUGAAGAGCCUUGGUUUUUUG

Variants of: B1
Assay: polymerase ribozyme fitness, log enrichment relative to wild type (log ratio); higher = more active; in vitro selection for triplet polymerase activity
Method in brief: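 Only genotypes with ≥10 input reads and ≥1 read per output were kept after Illumina sequencing of input and output libraries. These libraries were PCR-built, transcribed mutants of each subunit of a heterodimeric triplet polymerase ribozyme, each put through one triplicate in vitro selection round with frozen incubation at −7 °C, gel excision of extended constructs, streptavidin-bead capture and RT-PCR. Fitness is a logarithmic ratio of genotype enrichment to wild-type enrichment, from inverse-variance-weighted replicate averages, with the logarithm in base 2.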

In order of rising “polymerase ribozyme fitness (log ratio)” value:
1. GACCAAUCUGCCCUCAGAGCUCGAGAACAUCUUCGGAUGCAGAGGAGGCAGGCUUCGGUGGUGCGAUAGCGCCAACGUCCUCAACCUCCAAUGCAUCACACCCCAUGAUGAUGCCUGAAGAGCCUUGGCUUUUUG [C62U C98A A103C U129C]  -6.12
2. GACCAAUCUGCCCUCAGAGCUCGAGAACAUCUUCGGAUGCAGAGGAGGCAGGCUUCGGUGGUGCGAUAGCGCCAACGUCCUCAACCUCCAAUGCAUACCACCACAUGAUGAUGCCUGAAGAGCCUUGGUUUUUUG [C62U C97A]  -5.14
3. GACCAAUCUGCCCUCAGAGCUCGAGAACAUCUUCGGAUGCAGAGGAGGCAGGCUUCGGUGGUGCGAUAGCGCCAACGUCCUCAACCUCGAAUACAUCCCAUCACAUGAUGAUCUCUGAAGAGCCUUCGUUUUUUG [C62U C89G G93A C101U G113C C114U G127C]  -4.42
4. GACCAAUCUGCCCUCAGAGCUCGAGAACAUCUUCGGAUGCAGAGGAGGCAGGCUUCGGUGGUGCGAUAGCGCCAACGUCCUCAACCUCCAAUGCAUCUCACCACAUGAUGUUGCCUGAACAGCCUUGGUUUUUUG [C62U C98U A111U G120C]  -4.23
5. GACCAAUCUGCCCUCAGAGCUCGAGAACAUCUUCGGAUGCAGAGGAGGCAGGCUUCGGUGGGGCGAUAGCGCCAAGGUCCUCAACCUCCAAUGCAUCCCACCACAUGAUGAAGCCUGAAGAGCCUUGGUUUUUUG [C62G C76G U112A]  -3.99
6. GACCAAUCUGCCCUCAGAGCUCGAGAACAUCUUCGGAUGCAGAGGAGGCAGGCUUCGGUGGUGCGAUAGCGCCAACGUCCUCAACCUCCAAUGCAUGCCACCACAUGAUGAUGCCUGAAGAGCCUUGGUUUAUUG [C62U C97G U132A]  -3.9
7. GACCAAUCUGCCCUCAGAGCUCGAGAACAUCUUCGGAUGCAGAGGAGGCAGGCUUCGGUGGGGCGAUAGCGCCAACGUCCUCAACCUCCAAUCCAUCCCACCACAUGAUGAUGCCUGAAGAGCCUUGGUUUUUUG [C62G G93C]  -3.7
8. GACCAAUCUGCCCUCAGAGCUCGAGAACAUCUUCGGAUGCAGAGGAGGCAGGCUUCGGUGGUGCGAUAGCGCUAACGUUUUCAACCUCCAAUGCAUCCCACCACAUGAUGAAGCCUGAAGAGCCUUGGUUUUUUG [C62U C73U C79U C80U U112A]  -3.4
9. GACCAAUCUGCCCUCAGAGCUCGAGAACAUCUUCGGAUGCAGAGGAGGCAGGCUUCGGUGGUGCGAUAGCGCCAACGUCCUCAACCUGCAAUGCAUCCCACCACAUGAUGAUGGCUGAAGAGCCUUGGUUUUUUG [C62U C88G C114G]  -3.23
10. GACCAAUCUGCCCUCAGAGCUCGAGAACAUCUUCGGAUGCAGAGGAGGCAGGCUUCGGUGGUGCGAUAGCGCCAACGUCCUCAACCUCCAAUGCUUCCCACCACAUGAUGAUGUCUGAAGAGCCUUGGUUUUUUG [C62U A95U C114U]  -3.03
11. GACCAAUCUGCCCUCAGAGCUCGAGAACAUCUUCGGAUGCAGAGGAGGCAGGCUUCGGUGGUGCGAUAGGGUCAACGUCCUCAACCUCCAAUGCAUCCCACCACAUGAUGAUGCCUGAAUAGCCUUGGUUUUUUG [C62U C70G C72U G120U]  -2.44
12. GACCAAUCUGCCCUCAGAGCUCGAGAACAUCUUCGGAUGCAGAGGAGGCAGGCUUCGGUGGGGCGAUAGCGCCAACGUCCUCAACCUCCAAUGCAUCCCACCACACGAUGAUGCCUGAAGAGCCUUGGUUUUUUG [C62G U106C]  -2.05
13. GACCAAUCUGCCCUCAGAGCUCGAGAACAUCUUCGGAUGCAGAGGAGGCAGGCUUCGGUGGGGCGAUAGCGCCAACGCCCUCAACCUCCAAUGCAUCCCACCACAUGAUGAUGCCUGAAGAGCCUUGGUUUUUUG [C62G U78C]  -1.87
14. GACCAAUCUGCCCUCAGAGCUCGAGAACAUCUUCGGAUGCAGAGGAGGCAGGCUUCGGUGGGGCGAUAGCGCCAACGUCCUCAACCUCCAAUGCAUCCCACCACAUGAUGAGGCCUGAAGAGCCUUGGUUUUUUG [C62G U112G]  -1.83
15. GACCAAUCUGCCCUCAGAGCUCGAGAACAUCUUCGGAUGCAGAGGAGGCAGGCUUCGGUGGGGCGAUAGCGCCAACGUCCUCAACCUCCAAUGCAUCCCACCACAUGAUGAUGCCUGAAUAGCCUUGGUUUUUUG [C62G G120U]  -1.64
16. GACCAAUCUGCCCUCAGAGCUCGAGAACAUCUUCGGAUGCAGAGGAGGCAGGCUUCGGUGGUGCGAUAGCGCCAACGUCCUCGACCUCCAAUGCAUCCCACCACAUGAUGAUGCCUGAAGAGCCUUGGUUUUUUG [C62U A83G]  -1.18
17. GACCAAUCUGCCCUCAGAGCUCGAGAACAUCUUCGGAUGCAGAGGAGGCAGGCUUCGGUGGUGCGAUAGCGCCAACGUCCUCACCCUCCAAUGCAUCCCACCACAUGAUGAUGCCUGAAGAGCCUUGGUUUUUUG [C62U A84C]  -1.06
18. GACCAAUCUGCCCUCAGAGCUCGAGAACAUCUUCGGAUGCAGAGGAGGCAGGCUUCGGUGGUGCGAUAGCGCCAACGUCCUCAACAUCCAAUGCAUCCCACCACAUGAUGAUGCCUGAAGAGCCUUGGUUUUUUG [C62U C86A]  -0.731
19. GACCAAUCUGCCCUCAGAGCUCGAGAACAUCUUCGGAUGCAGAGGAGGCAGGCUUCGGUGGUGCGAUAGCGCCAACGUCCUCAACUUCCAAUGCAUCCCACCACAUGAUGAUGCCUGAAGAGCCUUGGUUUUUUG [C62U C86U]  -0.567
20. GACCAAUCUGCCCUCAGAGCUCGAGAACAUCUUCGGAUGCAGAGGAGGCAGGCUUCGGUGGUGUGAUAGCGCCAACGUCCUCAACCUCCAAUGCAUCCCACCACAUGAUGAUGCCUGAAGAGCCUUGGUUUUUUG [C62U C64U]  -0.305
21. GACCAAUCUGCCCUCAGAGCUCGAGAACAUCUUCGGAUGCAGAGGAGGCAGGCUUCGGUGGUGCGAUAGCGCCAACGUCCUCAACCUCCAAUGCAUCCCACCACAUGAUGCUGCCUGAAGAGCCUUGGUUUUUUG [C62U A111C]  0.533
